This note sets out measurements from IntAct's records for PubMed 29789297.

Sequences and labels used below:
B1: Protein FAM83C (Homo sapiens), Q9BQN1 (parent)
chain: MFGGPGPGVLGAQGMAGPLRGRVEELKLPWWRESSPLVLRHSEAARLAADALLERGEAAYLRVISEERELPFLSALDVDYMTSHVRGGPELSEAQGQEASGPDRLSLLSEVTSGTYFPMASDIDPPDLDLGWPEVPQATGFSPTQAVVHFQRDKAKNIKDLLRFLFSQAHTVVAVVMDIFTDMELLCDLMEASSRRGVPVYLLLAQEHLRHFLEMCYKMDLNGEHLPNMRVRSTCGDTYCSKAGRRFTGQALEKFVLIDCEQVVAGSYSFTWLCSQAHTSMVLQLRGRIVEDFDREFRCLYAESQPVEGFCGGEDPLSPRALRPPPVALAFRPDVPSPTSSLPSSTSLSSIKQSPLMGRSSYLALPGGGDCSDTGVVSSSLGPARREASGQPSLHRQLSDPNHGSPPGLYRANLGKLGAYPWSQSSPALNHNSTSPLTLAVGSPLLPRSRPLLQFHRGAPALSRFPENGLPGSQEPSPLRGRWVPGTTLETVEEKEKKASPSQSRGQLDLLVPFPRAREVGDPDSGVTPNSGPLRPGEQAPEDRRLSPSQADSQLDLLSRALGTGGAPELGSLRPGDRALEDRRLSLNQSRGQSDLLMQYPKAQGSRVPLETNSSARPARRAPDERRQTLGHSQLDLITKFGPFRGEGPGPNGLPISSPARTAGAGSGDEKRLTLGHSKLDLITKYHQLHGARQGTEPGGPKGGHLNGGNSDLVRDEKRLTLGHSKLDLITKYNKSKFKQLRSRFES
B2: Protein FAM83G (Homo sapiens), A6ND36 (parent)
chain: MAFSQVQCLDDNHVNWRSSESKPEFFYSEEQRLALEALVARGRDAFYEVLKRENIRDFLSELELKRILETIEVYDPGSEDPRGTGPSQGPEDNGVGDGEEASGADGVPIEAEPLPSLEYWPQKSDRSIPQLDLGWPDTIAYRGVTRASVYMQPPIDGQAHIKEVVRKMISQAQKVIAVVMDMFTDVDIFKDLLDAGFKRKVAVYIIVDESNVKYFLHMCERACMHLGHLKNLRVRSSGGTEFFTRSATKFKGALAQKFMFVDGDRAVCGSYSFTWSAARTDRNVISVLSGQVVEMFDRQFQELYLMSHSVSLKGIPMEKEPEPEPIVLPSVVPLVPAGTVAKKLVNPKYALVKAKSVDEIAKISSEKQEAKKPLGLKGPALAEHPGELPELLPPIHPGLLHLERANMFEYLPTWVEPDPEPGSDILGYINIIDPNIWNPQPSQMNRIKIRDTSQASAQHQLWKQSQDSRPRPEPCPPPEPSAPQDGVPAENGLPQGDPEPLPPVPKPRTVPVADVLARDSSDIGWVLELPKEEAPQNGTDHRLPRMAGPGHAPLQRQLSVTQDDPESLGVGLPNGLDGVEEEDDDDYVTLSDQDSHSGSSGRGPGPRRPSVASSVSEEYFEVREHSVPLRRRHSEQVANGPTPPPRRQLSAPHITRGTFVGPQGGSPWAQSRGREEADALKRMQAQRSTDKEAQGQQFHHHRVPASGTRDKDGFPGPPRYRSAADSVQSSTRNAGPAMAGPHHWQAKGGQVPRLLPDPGSPRLAQNARPMTDGRATEEHPSPFGIPYSKLSQSKHLKARTGGSQWASSDSKRRAQAPRDRKDP
B3: Casein kinase I isoform alpha (Homo sapiens), P48729 (parent)
chain: MASSSGSKAEFIVGGKYKLVRKIGSGSFGDIYLAINITNGEEVAVKLESQKARHPQLLYESKLYKILQGGVGIPHIRWYGQEKDYNVLVMDLLGPSLEDLFNFCSRRFTMKTVLMLADQMISRIEYVHTKNFIHRDIKPDNFLMGIGRHCNKLFLIDFGLAKKYRDNRTRQHIPYREDKNLTGTARYASINAHLGIEQSRRDDMESLGYVLMYFNRTSLPWQGLKAATKKQKYEKISEKKMSTPVEVLCKGFPAEFAMYLNYCRGLRFEEAPDYMYLRQLFRILFRTLNHQYDYTFDWTMLKQKAAQQAASSSGQGQQAQTPTGKQTDKTKSNMKGF
partner: B2 chain
B4: Casein kinase I isoform alpha (Homo sapiens), P48729 (parent)
chain: B3 chain
B5: Protein FAM83F (Homo sapiens), Q8NEG4 (parent)
chain: MAESQLNCLDEAHVNEKVTEAQAAFYYCERRRAALEALLGGGEQAYRERLKEEQLRDFLSSPERQALRAAWSPYEDAVPAANARGKSKAKAKAPAPAPAESGESLAYWPDRSDTEVPPLDLGWTDTGFYRGVSRVTLFTHPPKDEKAPHLKQVVRQMIQQAQKVIAVVMDLFTDGDIFQDIVDAACKRRVPVYIILDEAGVKYFLEMCQDLQLTDFRIRNIRVRSVTGVGFYMPMGRIKGTLSSRFLMVDGDKVATGSYRFTWSSSHVDRNLLLLLTGQNVEPFDTEFRELYAISEEVDLYRQLSLAGRVGLHYSSTVARKLINPKYALVSGCRHPPGEMMRWAARQQREAGGNPEGQEEGASGGESAWRLESFLKDLVTVEQVLPPVEPIPLGELSQKDGRMVSHMHRDLKPKSREAPSRNGMGEAARGEAAPARRFSSRLFSRRAKRPAAPNGMASSVSTETSEVEFLTGKRPNENSSADISGKTSPSSAKPSNCVIS
B6: Protein FAM83H (Homo sapiens), Q6ZRV2 (parent)
chain: MARRSQSSSQGDNPLAPGYLPPHYKEYYRLAVDALAEGGSEAYSRFLATEGAPDFLCPEELEHVSRHLRPPQYVTREPPEGSLLDVDMDGSSGTYWPVNSDQAVPELDLGWPLTFGFQGTEVTTLVQPPPPDSPSIKDEARRMIRSAQQVVAVVMDMFTDVDLLSEVLEAAARRVPVYILLDEMNAQHFLDMADKCRVNLQHVDFLRVRTVAGPTYYCRTGKSFKGHVKEKFLLVDCAVVMSGSYSFMWSFEKIHRSLAHVFQGELVSSFDEEFRILFAQSEPLVPSAAALARMDAYALAPYAGAGPLVGVPGVGAPTPFSFPKRAHLLFPPPREEGLGFPSFLDPDRHFLSAFRREEPPRMPGGALEPHAGLRPLSRRLEAEAGPAGELAGARGFFQARHLEMDAFKRHSFATEGAGAVENFAAARQVSRQTFLSHGDDFRFQTSHFHRDQLYQQQYQWDPQLTPARPQGLFEKLRGGRAGFADPDDFTLGAGPRFPELGPDGHQRLDYVPSSASREVRHGSDPAFAPGPRGLEPSGAPRPNLTQRFPCQAAARPGPDPAPEAEPERRGGPEGRAGLRRWRLASYLSGCHGEDGGDDGLPAPMEAEAYEDDVLAPGGRAPAGDLLPSAFRVPAAFPTKVPVPGPGSGGNGPEREGPEEPGLAKQDSFRSRLNPLVQRSSRLRSSLIFSTSQAEGAAGAAAATEKVQLLHKEQTVSETLGPGGEAVRSAASTKVAELLEKYKGPARDPGGGAGAITVASHSKAVVSQAWREEVAAPGAVGGERRSLESCLLDLRDSFAQQLHQEAERQPGAASLTAAQLLDTLGRSGSDRLPSRFLSAQSHSTSPQGLDSPLPLEGSGAHQVLHNESKGSPTSAYPERKGSPTPGFSTRRGSPTTGFIEQKGSPTSAYPERRGSPVPPVPERRSSPVPPVPERRGSLTLTISGESPKAGPAEEGPSGPMEVLRKGSLRLRQLLSPKGERRMEDEGGFPVPQENGQPESPRRLSLGQGDSTEAATEERGPRARLSSATANALYSSNLRDDTKAILEQISAHGQKHRAVPAPSPGPTHNSPELGRPPAAGVLAPDMSDKDKCSAIFRSDSLGTQGRLSRTLPASAEERDRLLRRMESMRKEKRVYSRFEVFCKKEEASSPGAGEGPAEEGTRDSKVGKFVPKILGTFKSKK
B7: Casein kinase I isoform alpha (Homo sapiens), P48729 (parent)
chain: B3 chain
partner: B6 chain

The variants in one test derive from B1. The following applies: with kc1a_human CSNK1A1, P48729.
For F293A, the “effect of a mutation on the interaction” value is reported as “disrupting interaction strength”.
On the same count and under the same terms, in the case of D259A it was “disrupting interaction strength”.

In another test the parent is B2. As to conditions: with kc1a_human CSNK1A1, P48729.
For the variant F300A, the “effect of a mutation on the interaction” value is given as “with no effect”.
Still for that read-out and setting: in the case of F296A;F300A it was “disrupting interaction strength”; in that of F296A, “disrupting interaction strength”.

The variants in another test derive from B2. As to conditions: with kc1a_human CSNK1A1, P48729. This is another data set of the same source.
Consider F300A, for which the “effect of a mutation on the interaction” value was “disrupting interaction strength”.
Regarding D262A, the “effect of a mutation on the interaction” value is given as “disrupting interaction strength”.

Another test covers variants of B3. The following applies: with fa83g_human FAM83G.
As to N141A, the “effect of a mutation on the interaction” value is “with no effect”.

Another test covers variants of B4. As to conditions: with fa83e_human FAM83E.
Regarding N141A, the “effect of a mutation on the interaction” value was “with no effect”.

The variants in a further test derive from B4. As to conditions: with fa83f_human FAM83F.
In the case of N141A, the “effect of a mutation on the interaction” value is “with no effect”.

Variants of B5 are the subject of another test. As to conditions: with kc1a_human CSNK1A1, P48729.
For the variant F284A, the “effect of a mutation on the interaction” value is recorded as “disrupting interaction strength”.
As to D250A, the “effect of a mutation on the interaction” value is “disrupting interaction strength”.

Variants of B6 are the subject of another test. As to conditions: with kc1a_human CSNK1A1, P48729.
In the case of F270A, the “effect of a mutation on the interaction” value is recorded as “disrupting interaction strength”.
Still for that read-out and setting: in the case of D236A it was “disrupting interaction strength”.

Variants of B6 are the subject of the next test. The following applies: with kc1e_human CSNK1E.
As for F270A, the “effect of a mutation on the interaction” value is recorded as “disrupting interaction strength”.
In the case of D236A, the “effect of a mutation on the interaction” value was “disrupting interaction strength”.

In the next test the parent is B7. The following applies: with fa83h_human FAM83H.
For the variant N141A, the “effect of a mutation on the interaction” value is recorded as “with no effect”.
